{"source": "paper PMC5240526", "about": "“ATPase activity tightly regulates RecA nucleofilaments to promote homologous recombination”", "binders": {"B1": {"name": "TMR-ss83mer (ssDNA)", "DNA": "TTTCCTACCTTAAGATCCTTCCAGTCTCCGCCGGCCAGTGTTACCCTTAGAGCTCATACCATTCGCCAATTTCTTCGCACGTT"}, "B2": {"name": "ss83mer (ssDNA)", "DNA": "B1 DNA"}, "B3": {"name": "TMR-ss175mer (ssDNA)", "DNA": "TCGTCTTTGGTATGTAGGTGGTCAACAATTTTAATTGCAGGGGCTTCGGCCCCTTACTTGAGGATAAATTATGTCTAATATTCAAACTGGCGCCGAGCGTATGCCGCATGACCTTTCCCATCTTGGCTTCCTTGCTGGTCAGATTGGTCGTCTTATTACCATTTCAACTACTCCG"}, "B4": {"name": "TMR-T18 (ssDNA)", "DNA": "TTTTTTTTTTTTTTTTTT"}, "B5": {"name": "TMR-T15 (ssDNA)", "DNA": "TTTTTTTTTTTTTTT"}, "B6": {"name": "TMR-T12 (ssDNA)", "DNA": "TTTTTTTTTTTT"}}, "key": {"[1]": {"target": "T1, RecA wild type (Escherichia coli, UniProt P0A7G6 2-353)", "T1 sequence (P0A7G6 2-353)": "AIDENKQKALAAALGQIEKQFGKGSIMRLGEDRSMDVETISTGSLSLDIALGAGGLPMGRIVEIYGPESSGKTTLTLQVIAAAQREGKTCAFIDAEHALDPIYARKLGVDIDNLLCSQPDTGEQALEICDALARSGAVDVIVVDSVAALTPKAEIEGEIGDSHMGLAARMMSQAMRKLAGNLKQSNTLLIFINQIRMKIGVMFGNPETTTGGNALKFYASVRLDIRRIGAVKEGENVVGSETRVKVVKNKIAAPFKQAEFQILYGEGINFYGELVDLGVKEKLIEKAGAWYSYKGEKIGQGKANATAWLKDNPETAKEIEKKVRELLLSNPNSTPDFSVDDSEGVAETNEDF", "assay": "CE-LIFP; 0.1 mM ATPgS, 10 mM Mg2+; 3.0 uM RecA; saturated filament; 20 mM Tris-HCl pH 7.4, 10 mM Mg2+, 10 nM oligo, 0-3.0 uM RecA, 37 C 10 min; CE in 25 mM Tris, 192 mM glycine, 0.5 mM Ca2+, pH 8.3, room temperature", "conditions": "protein: recombinant; label: 5'-TMR"}, "[2]": {"target": "T1, RecA wild type", "assay": "electron microscopy; 0.1 mM ATPgS; 3.0 uM RecA, 300 nM DNA; saturated filament; 20 mM Tris-HCl pH 7.4, 10 mM Mg2+, 10 nM oligo, 0-3.0 uM RecA, 37 C 10 min; CE in 25 mM Tris, 192 mM glycine, 0.5 mM Ca2+, pH 8.3, room temperature", "conditions": "protein: recombinant"}, "[3]": {"target": "T1, RecA wild type", "assay": "CE-LIFP; ATP, 10 mM Mg2+; 3.0 uM RecA; mainly unsaturated filament; 20 mM Tris-HCl pH 7.4, 10 mM Mg2+, 10 nM oligo, 0-3.0 uM RecA, 37 C 10 min; CE in 25 mM Tris, 192 mM glycine, 0.5 mM Ca2+, pH 8.3, room temperature", "conditions": "protein: recombinant; label: 5'-TMR"}, "[4]": {"target": "T1, RecA wild type", "assay": "CE-LIFP; ATP, 10 mM Mg2+; six complexes (1-6 RecA), mainly 1:4 DNA:RecA at 1.0 mM ATP; 20 mM Tris-HCl pH 7.4, 10 mM Mg2+, 10 nM oligo, 0-3.0 uM RecA, 37 C 10 min; CE in 25 mM Tris, 192 mM glycine, 0.5 mM Ca2+, pH 8.3, room temperature", "conditions": "protein: recombinant; label: 5'-TMR"}, "[5]": {"target": "T1, RecA wild type", "assay": "CE-LIFP; 0.01-3.0 mM ATP; 16 uM RecA; five complexes; 20 mM Tris-HCl pH 7.4, 10 mM Mg2+, 10 nM oligo, 0-3.0 uM RecA, 37 C 10 min; CE in 25 mM Tris, 192 mM glycine, 0.5 mM Ca2+, pH 8.3, room temperature", "conditions": "protein: recombinant; label: 5'-TMR"}, "[6]": {"target": "T1, RecA wild type", "assay": "CE-LIFP; 0.01-3.0 mM ATP; 16 uM RecA; four complexes; 20 mM Tris-HCl pH 7.4, 10 mM Mg2+, 10 nM oligo, 0-3.0 uM RecA, 37 C 10 min; CE in 25 mM Tris, 192 mM glycine, 0.5 mM Ca2+, pH 8.3, room temperature", "conditions": "protein: recombinant; label: 5'-TMR"}}, "data": [{"binder": "B1", "values": [{"measurement": "binding result", "setting": "[1]", "result": "binds"}]}, {"binder": "B2", "values": [{"measurement": "binding result", "setting": "[2]", "result": "binds"}]}, {"binder": "B3", "values": [{"measurement": "binding result", "setting": "[3]", "result": "binds"}]}, {"binder": "B4", "values": [{"measurement": "binding result", "setting": "[4]", "result": "binds"}]}, {"binder": "B5", "values": [{"measurement": "binding result", "setting": "[5]", "result": "binds"}]}, {"binder": "B6", "values": [{"measurement": "binding result", "setting": "[6]", "result": "binds"}]}]}
